Data published in the supplement of paper PMC12667976.
± gives the standard error.

B1: library; numbered along this chain (parent)
chain: MATDAALRRLLRLHRTEIAVAVDSAFPLLHALADHDVVPEDKFQETLHLKEKEGCPQAFHALLSWLLTQDSTAILDFWRVLFKDYNLERYGRLQPILDSFPKDVDLSQPRKGRKPPAVPKALVPPPRLPTKRKASEEARAAAPAALTPRGTASPGSQLKAKPPKKPESSAEQQRLPLGNGIQTMSASVQRAVAMSSGDVPGARGAVEGILIQQVFESGGSKKCIQVGGEFYTPSKFEDSGSGKNKARSSSGPKPLVRAKGAQGAAPGGGEARLGQQGSVPAPLALPSDPQLHQKNEDECAVCRDGGELICCDGCPRAFHLACLSPPLREIPSGTWRCSSCLQATVQEVQPRAEEPRPQEPPVETPLPPGLRSAGEEVRGPPGEPLAGMDTTLVYKHLPAPPSAAPLPGLDSSALHPLLCVGPEGQQNLAPGARCGVCGDGTDVLRCTHCAAAFHWRCHFPAGTSRPGTGLRCRSCSGDVTPAPVEGVLAPSPARLAPGPAKDDTASHEPALHRDDLESLLSEHTFDGILQWAIQSMARPAAPFPS

Variants of: B1
Assay: AIRE transcriptional activation functional score (insulin promoter-GFP; nonsense median 0, synonymous median 1) (normalised score); higher = higher AIRE activity (more reporter activation)
Settings: with insulin promoter-GFP reporter in HEK293
Procedure: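 Deep mutational scan of full-length human AIRE (codon-optimized cDNA, DT-POPCode NNN libraries over three regions) integrated at a Bxb1 landing pad in HEK293 cells carrying an insulin core promoter-GFP reporter at a Flp-In site. Cells were sorted for the top 10% GFP about 14 days after transfection. Variant frequency log-ratios (select vs non-select, TileSeq) were rescaled so that the nonsense median is 0 and the synonymous median is 1, then averaged over biological replicates.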

Variant | AIRE transcriptional activation functional score
L519G | 0.259 ± 0.25
E40K | -0.28 ± 0.19
L158W | 1.22 ± 0.042
D389Y | 0.964 ± 0.08
L93M | -0.0479 ± 0.027
L93E | 0.401 ± 0.37
F82L | 0.0208 ± 0.29
Q293M | 0.829 ± 0.075
V206R | 0.478 ± 0.33
T447W | 1.32 ± 0.029
D198V | 0.978 ± 0.15
P163R | 0.66 ± 0.53
P401H | 1.01 ± 0.13
S156P | 0.405 ± 0.26
S156H | 0.981 ± 0.23
R336F | 1.13 ± 0.43
E363C | 1.27 ± 0.054
E307L | 0.372 ± 0.31
P280E | 1.13 ± 0.23
P280Y | 1.42 ± 0.076
R15P | -0.373 ± 1
S474K | 0.466 ± 0.19
D84S | 1.11 ± 0.31
E517R | 0.985 ± 0.12

Variant | AIRE transcriptional activation functional score
C299I | 0.55 ± 0.37
S476H | 0.529 ± 0.051
P499E | 0.508 ± 0.27
L146C | 0.639 ± 0.064
H48G | 0.181 ± 0.13
H48C | 0.651 ± 0.54
A170N | 1.2 ± 0.4
F236V | 0.877 ± 0.39
F236K | 0.0925 ± 0.14
F236T | -0.222 ± 0.095
R89S | 1.8 ± 0.34
L320C | 0.84 ± 0.18
D105L | 0.724 ± 0.18
L122E | 0.827 ± 0.24
K159S | 0.905 ± 0.3
F43D | -0.408 ± 0.097
A461C | 0.883 ± 0.1
V256Q | 0.671 ± 0.27
V256Y | 1.39 ± 0.17
V256P | 0.878 ± 0.24
I96R | 0.0358 ± 0.43
L291V | 1.03 ± 0.21
G498T | 1.09 ± 0.36
G498Q | 0.969 ± 0.11

Variant | AIRE transcriptional activation functional score
R378E | 0.928 ± 0.45
R378M | 0.0153 ± 0.2
K111R | 0.805 ± 0.34
S196E | 1.06 ± 0.28
S464E | 1.32 ± 0.084
T232P | 0.894 ± 0.34
T3I | -0.128 ± 0.25
G469A | 0.409 ± 0.37
V22K | -1.05 ± 0.071
V22I | 1.57 ± 0.55
R92I | -0.385 ± 0.42
R92A | -0.0922 ± 0.45
R456S | 0.726 ± 0.18
V123Y | 1.43 ± 0.12
I209N | 0.657 ± 0.3
I209K | 0.159 ± 0.16
V118G | 0.911 ± 0.38
K259W | 1.19 ± 0.089
W65S | 0.269 ± 0.64
R257G | 0.771 ± 0.33
S491T | 0.571 ± 0.31
S491P | 1.1 ± 0.45
S491K | 0.437 ± 0.24
Q182M | 0.383 ± 0.048

Variant | AIRE transcriptional activation functional score
P27C | -0.00711 ± 0.11
P27Y | -0.654 ± 0.33
L283I | 0.854 ± 0.18
H523V | 0.847 ± 0.12
A373E | 1.28 ± 0.12
A386N | 0.757 ± 0.088
K164I | 0.719 ± 0.5
K164L | 1.14 ± 0.35
G467Y | 0.488 ± 0.17
A505L | 0.848 ± 0.27
A505D | 0.657 ± 0.051
Q358A | 0.941 ± 0.3
P109A | 0.959 ± 0.96
T391W | 1.58 ± 0.076
E383S | 1.01 ± 0.25
E383P | 0.887 ± 0.35
A429F | 1.34 ± 0.1
E207Y | 0.0192 ± 0.34
E207N | 0.371 ± 0.19
P398E | 0.984 ± 0.074
V436E | 0.492 ± 0.29
V436D | 0.874 ± 0.21
C340V | 1.42 ± 0.083
A117E | 1.03 ± 0.14

Variant | AIRE transcriptional activation functional score
A117W | 1.4 ± 0.096
P266V | 0.93 ± 0.34
E347C | 1.15 ± 0.025
E347S | 1.12 ± 0.17
V38W | -0.576 ± 0.14
G260E | 1.03 ± 0.07
A258M | 0.409 ± 0.07
L428A | 1.08 ± 0.081
P405F | 1.03 ± 0.048
S169T | -0.214 ± 1.1
D502F | 1.35 ± 0.041
S278L | 1.01 ± 0.28
S278Y | 1.29 ± 0.17
G204R | 1.32 ± 0.17
G204H | 1.43 ± 0.35
D514Y | 0.351 ± 0.055
A58K | -1.14 ± 0.57
D98F | 0.239 ± 0.16
D98H | 1.3 ± 0.26
D98C | 0.078 ± 0.41
S241H | 0.567 ± 0.047
P481E | 0.44 ± 0.17
C310V | 0.912 ± 0.21
C310N | 0.714 ± 0.11

Variant | AIRE transcriptional activation functional score
E329D | 1.74 ± 0.17
A264I | -1.66 ± 0.39
A264S | 1.18 ± 0.15
G382L | 0.669 ± 0.41
G382P | 0.74 ± 0.23
A152E | -0.141 ± 0.22
S234Y | 1.11 ± 0.11
S234L | 1.04 ± 0.18
S234E | 0.552 ± 0.23
T344N | 0.983 ± 0.14
Q534N | 1.8 ± 0.093
L47K | -1.23 ± 0.61
V443C | 1.15 ± 0.15
V443Q | 0.368 ± 0.051
S545P | 0.59 ± 0.21
V104Q | 1.13 ± 0.11
P325K | 1.55 ± 0.083
P325H | 0.387 ± 0.14
D526W | -0.427 ± 0.46
D526P | -0.403 ± 0.092
A343L | 1.38 ± 0.24
A343H | 1.02 ± 0.16
A21D | -0.73 ± 0.38
D76Y | 0.302 ± 0.36

Variant | AIRE transcriptional activation functional score
S24D | 0.577 ± 0.078
S24E | 0.661 ± 0.12
S135F | 1.13 ± 0.4
L516G | 0.562 ± 0.066
L516Q | 0.292 ± 0.12
G240K | 1.07 ± 0.15
P361G | 1.21 ± 0.2
F459S | 0.591 ± 0.26
G305P | 0.937 ± 0.17
E354N | 0.818 ± 0.16
P381E | 1.26 ± 0.45
Q157W | 0.173 ± 0.069
L49Q | -0.302 ± 0.092
L49P | -0.173 ± 0.43
K52Y | 0.198 ± 0.39
A541I | 1.3 ± 0.064
A541T | 0.842 ± 0.18
A541S | 0.717 ± 0.35
A541F | 0.75 ± 0.26
A144K | 0.364 ± 0.24
V192P | 0.706 ± 0.37
A141F | 1.77 ± 0.25
A138K | 0.889 ± 0.063
